Test results from patent US20250082754A1 (NANJING LEGEND BIOTECH, published 2025).

B1: AS141962 (scFv)
scFv (VL-linker-VH): QAVLTQPSSVSGTPGQTVTISCAGTSSDVGSTNYVSWYRQLPGTAPKLLIYQVNYRASGIADRFSGSKSGNTASLTISGLQSADEADYYCASRSGNNFVFGGGTHLTVLGGGGSGGGGSGGGGSEVQLVESGGGLVQPGGSLRLSCAASGFTFSDFSIFWVRQAPGKGLEWVSSINFGGDRTYYADSVKGRFTISRNNAENTVYLQMNSLKAEDTAAYHCVTTAVALADCSGGCYTPGAFNAWGQGTLVTISS
notes: Format as for f1; also called anti-CD33 IgG1 AS141962; AS141962 scFv
B2: AS141837 (scFv)
scFv (VL-linker-VH): SSELTQPSAVSVSLGETARITCQGVNVGSYYASWYQQKPGQAPVLVIYGNSNRPSGIPERFSGSKSGGTATLTISGAQAEDEADYYCQSADSSAFNAVFGGGTHLTVLGGGGSGGGGSGGGGSQVQLVQSGGGLVQPGGSLRLSCAASGFTFSSYDMTWVRQAPGKGLEWVSAVNSGGGTTYYADSVKGRFTISRDNAKNTLYLQMNSLKTEDTAVYYCATAIEREEDPLWVGPEYNTWGQGTQVTVSS
notes: Format as for f1; also called anti-CD33 IgG1 AS141837; AS141837 scFv
B3: AS141869 (scFv)
scFv (VL-linker-VH): NFMLTQPSAVSVSLGETARITCQGGNVGTSYASWYQQKPGQAPVLVIYGNSNRPSGIPERFSGSKSGGTATLTISGAQAEDEADYYCQSADSRGYVAFGGGTHLTVLGGGGSGGGGSGGGGSQVQLQESGGGLVQPGGSLRLSCAASGFTFSSYDITWVRQAPGKGLEWVSAINSGGNSTYYADSVKGRFTISRDNAKNTLYLQMNSLKTEDTAVYYCATAIEREEDPLWVGPEYNYWGQGTQVTVSS
notes: The legend calls it anti-CD33 IgG1; also called anti-CD33 IgG1 AS141869; AS141869 scFv
B4: AS188893 (scFv)
scFv (VL-linker-VH): SYELTQPSAVSVSLGQTARITCQGGNLGTSYVHWYQQKPGQAPVLVIYGDDSRPSGIPERFSGSSSGGTATLTISGAQAEDEADYYCQSYDSSSSVFGGGTHLTVLGGGGSGGGGSGGGGSQVQLQESGGGLVQPGGSLRLSCAASGFTFSNNWMYWVRQAPGKGLEWVSSIATGDGSTNSADSVKGRFTISRDNTKNMLYLQMNSLKSEDTALYYCAKGVNIDHDVGAGDYWGQGTQVTVSS
notes: Format as for f1; also called anti-CD33 IgG1 AS188893; AS188893 scFv
B5: AS138521 (scFv)
scFv (VL-linker-VH): SSELTQPAAVSVSLGETARITCQGGNFGSYYATWYQQKPGQAPVLVIYANSNRPSGIPERFSGSSSGGTATLTISGAQAEDEADYYCQSYDNSANAVFGGGTHLTVLGGGGSGGGGSGGGGSEVQLVESGGGLVQPGGSLRLSCAASGSTFWSYYMSWVRQAPGKGLEWVSSIYSDGSYAYYADSVKGRFTISRDNAKNTVYLQMNSLKSEDTALYYCATAPTPDGGSWLWYNYWGQGTQVTVSS
notes: Format as for f1; also called anti-CD33 IgG1 AS138521; AS138521 scFv
B6: AS142096 (scFv)
scFv (VL-linker-VH): NFMLTQPSAVSVSLGETARITCQGGKVGSNYASWYQQKPGQAPVLVIYGDDSRPSGIPERFSGSSSGGTATLTISGAQAEDEADYYCQSYDSSGYNAVFGGGTHLTVLGGGGSGGGGSGGGGSQVQLVESGGGLVQPGGSLRLSCAASGFTFFSYYMSWVRQAPGKGLEWVSSIYSDGSNTYYADSVKGRFTISRDNAKNTVYLQMNSLKSEDTALYYCATAGYYSDYVEFEYWGQGILVTVSS
notes: Format as for f1; also called anti-CD33 IgG1 AS142096; AS142096 scFv
B7: AS141996 (scFv)
scFv (VL-linker-VH): SSELTQPSAVSVSLGETARITCQGGNVGSSYASWYQQKPGQAPVLVIYEDSERPSGIAERFSGSSSGGTATLTISGAQAEDEADYYCQSADNNGAVFGGGTHLTVLGGGGSGGGGSGGGGSEVQVVESGGGLVQPGGSLRLSCAGSGFTFSSYAMSWVRQAPGKGLEWVSTINSGGGSTYYADSVKGRFTISRDNAKNTLYLQLNSLKTEDTAMYYCANHLLIIYSDYDVRGSEAWETWGQGTLVTVSS
notes: Format as for f1; also called anti-CD33 IgG1 AS141996; AS141996 scFv
B8: AS199911 (scFv)
scFv (VL-linker-VH): SYELTQPSALSVTLGQSAKITCQGDNFETTYVHWYQQKPGQAPVLVIYNDDSRPSGIPERFSGSNSGDRATLTISGAQAEDEGDYYCQSADTSGNAYVFGGGTHLTVLGGGGSGGGGSGGGGSAVQLVESGGGLVQPGGSLRLSCAASGFTFSRSDMSWVRQAPGKGLEWVSYINSGGGTNRYADSVKARFTIFRDNAKNTLYLQMNTLKPEDTAVYYCAKSGFDSDWIFGYLERWGQGTLVTVSS
notes: Format as for f1; also called anti-CD33 IgG1 AS199911; AS199911 scFv
B9: AS187809 (scFv)
scFv (VL-linker-VH): EIVMTQSPSSVTASAGEKVTINCKSSQSVLYSSNQKSYLAWYQQRPGQSPRLLIYYASTRESGVPDRFSGSGSTTDFTLTISSVQPEDAAVYYCQQGYSAPVTFGQGTKLELKGGGGSGGGGSGGGGSQVQLQESGGGLVQPGGSLRLSCAASGFTFSRYYMSWVRQAPGKGLEWVSSIYSDGSNTYYTDSVKGRFTISRDNAKNTVYLQMNSLKSEDTAQYYCATDRDCSGIHCGAFGYWGQGTQVTVSS
notes: Format as for f1; also called anti-CD33 IgG1 AS187809; AS187809 scFv
B10: AS141974 (scFv)
scFv (VL-linker-VH): NFMLTQPAAVSVSLGETARITCQGGNFGSYYASWYQQKPGQAPVLVIYANSNRPSGIPERFSGSSSGGTATLTISGAQAEDEADYYCQSYDSSAAVFGGGTHLTVLGGGGSGGGGSGGGGSQVQLQESGGGLVQPGGSLRLSCAASGFTFSSYAMSWVRQAPGKGLEWVSAINSGGGSTYYADSVKGRFTISRDNAKNTLYLQLNSLKTEDTAMYYCAKEGGLYYSDYDELYFGYWGQGTQVTVSS
notes: Format as for f1; also called anti-CD33 IgG1 AS141974; AS141974 scFv
B11: AS199772 (scFv)
scFv (VL-linker-VH): SYELTQSPSVSVALRQAAKITCRGDNIETKYAYWYQQKPGQSPLLVIYKDDNRPSGIPERFSGSNSGNMATLTISGAQAEDEADYYCQVWDSSANWVFGGGTHLTVLGGGGSGGGGSGGGGSQVQLQESGGGLVQPGGSLRLSCAASGFTFSSYWMYWVRQAPGKGLEWVSAMNTGGGSTYYGDSVKGRFTVSRDNAKNTLALQMNSLKPEDTALYYCARSWGGMYSGGYYEYSGMDYWGKGTLVTVSS
notes: Format as for f1; also called anti-CD33 IgG1 AS199772; AS199772 scFv
B12: AS142077 (scFv)
scFv (VL-linker-VH): SYELTQPSAMSVSLGETTRITCQGGNIESSYASWYQQKPGQAPALVIYEDSERPSRIPERFSGSSSGGTATLTISGAQAEDEADYYCQSADSSGYNPVFGGGTHLTVLGGGGSGGGGSGGGGSQVQLVESGGGLVQPGGSLRLSCAASGFTFSSYAMSWVRQAPGKGLEWVSGINSGGGSTYYADSVKGRFTISRDNAKNTLYLQLNSLKTEDTAMYYCAKHLLIIYSDYDVRGSEALDAWGQGTLVTVSS
notes: Format as for f1; also called anti-CD33 IgG1 AS142077; AS142077 scFv
B13: AS200728C (scFv)
scFv (VL-linker-VH): QAVVTQLSSMSGSPGQTVTITCTGSSSNIGGGYYLSWYQQLPGTAPKLLIYNVNNRASGVPNRFSGSKTGSLASLTITGLQAEDEADYYCGSYDESLSYVFGGGTHLTVLGGGGSGGGGSGGGGSQVQLVESGGGLVQPGGSLRVSCAASGFTFKNYYMGWVRQAPGKGLEWISGINSGGEVTTYADSVKDRFTISRDNAKNTLYLQMNSLKPDDTALYYCAGGEGSSWYPDYYYGNGYWGEGTLITVSS
notes: Format as for f1; also called anti-CD33 IgG1 AS200728C; AS200728C scFv
B14: AS199757 (scFv)
scFv (VL-linker-VH): NFMLTQPPSVSGSPGQKFTISCTGSSNNIGDNYVNWYQHLPGTAPKLLIYSNNNRASGVPDRFSGSKSGSSASLTITGLQAEDEADYYCSSWDDSLSGFVFGGGTHLTVLGGGGSGGGGSGGGGSAVQLVESGGGLVQPGGSLRLTCAASGFTFDNYGMSWVRQAPGKGLEWVSAIMWNGGTTYYAEPMKGRFTISRDNAKNTVYLQMNSLKSEDTAVYYCARHGSSWYAMDYWGQGTQVTVSS
notes: Format as for f1; also called anti-CD33 IgG1 AS199757; AS199757 scFv

Key:
[1] = target: T1, Human CD33 C2 domain (human, UniProt P20138); test: +/- column 'Human CD33 C2 domain' of the drawn table; legend: cell binding properties; assay not named on the sheet
T1 construct: C2 domain only; also called C2-set Ig-like domain of human CD33

[2] = target: T2, human CD33 protein (human, UniProt P20138 18-259); test: SPR (BIACORE T200), antibody fragment captured by affinity tag, 100 nM human CD33 flowed over, estimate from one concentration; column KD; no unit printed on the sheet
T2 construct: extracellular domain; It is not tied to the protein used in the screen, so it is not used here; also called recombinant human CD33 protein; CD33 ECD proteins
Description: The scFv proteins in the supernatant were analyzed for their ability to bind to CD33 ECD proteins by ELISA and CD33-overexpressing MV4-11 cell lines by FACS. All binders were sequenced and some were subjected to for further characterization including affinity ranking by surface plasmon resonance (SPR) on a BIACORE® T200 instrument. The experiments were carried out as follows: the crude […] proteins were captured through an affinity tag onto the sensorchip. High-concentration (100 nM) of human CD33 flowed over the sensorchip surface, and was allowed to bind the antibody fragments. On-rate (kon) and off-rate (koff) were roughly calculated based on the association and dissociation of one antigen concentration, and were used to estimate the equilibrium dissociation constant (KD).

T2 sequence (P20138 18-259): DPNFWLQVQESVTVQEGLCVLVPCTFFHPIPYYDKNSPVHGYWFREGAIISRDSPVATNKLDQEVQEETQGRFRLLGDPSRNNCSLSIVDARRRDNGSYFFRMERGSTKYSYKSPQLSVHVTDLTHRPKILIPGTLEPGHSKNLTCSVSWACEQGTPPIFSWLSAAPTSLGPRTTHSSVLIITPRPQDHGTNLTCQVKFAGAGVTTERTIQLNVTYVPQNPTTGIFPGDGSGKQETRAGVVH
T1 sequence (P20138 145-228 limits assumed): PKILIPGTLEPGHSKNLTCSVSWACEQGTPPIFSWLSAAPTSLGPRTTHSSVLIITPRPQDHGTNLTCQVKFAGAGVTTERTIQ

Row | Binder | binding result [1] | Kd [2]
1 | B1 | no binding (tested: not given) | 3.06 nM
2 | B2 | no binding (tested: not given) | 21.4 nM
3 | B3 | no binding (tested: not given) | 11.5 nM
4 | B4 |  | 0.064 nM
5 | B5 | no binding (tested: not given) | 0.364 nM
6 | B6 | no binding (tested: not given) | 0.27 nM
7 | B7 | no binding (tested: not given) | 0.0624 nM
8 | B8 |  | 0.35 nM
9 | B9 |  | 1.08 nM
10 | B10 | no binding (tested: not given) | 1.79 nM
11 | B11 |  | 0.067 nM
12 | B12 | no binding (tested: not given) | 0.348 nM
13 | B13 |  | 0.24 nM
14 | B14 |  | 1.5 nM
